Holding throughout (conditions): protein: recombinant; tags: none; blunt
For data set [1], the target named is T1, AFV1p06 (ORF59a) (Acidianus filamentous virus 1? (AFV1, …, UniProt Q70LE5 1-59)).
T1 sequence: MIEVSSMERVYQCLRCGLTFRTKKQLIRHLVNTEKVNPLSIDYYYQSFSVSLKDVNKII
Kind of data set: competition; vs labelled dsATcomb 75 nM, 0.5 uM protein; 50 mM HEPES pH 7.4, 10 uM ZnCl2, 150 mM NaCl, 5% glycerol, 0.02% Tween, 3 mM DTT, 50 ng/uL salmon sperm DNA, 15 min at 48 C; 6% native PAGE in TBE.

Data set [2] deals with T1, AFV1p06 (ORF59a). As to the kind of experiment: EMSA; 10 uM ZnCl2, 50 ng/uL salmon sperm DNA, 75 nM probe, 0-2 uM protein; 50 mM HEPES pH 7.4, 10 uM ZnCl2, 150 mM NaCl, 5% glycerol, 0.02% Tween, 3 mM DTT, 50 ng/uL salmon sperm DNA, 15 min at 48 C; 6% native PAGE in TBE. Background: Mobility shift assays separate free from complexed probe on a gel.
Data set [3] addresses T1, AFV1p06 (ORF59a). As to the kind of experiment: competition; vs labelled dsGCcomb 75 nM, 0.5 uM protein; 50 mM HEPES pH 7.4, 10 uM ZnCl2, 150 mM NaCl, 5% glycerol, 0.02% Tween, 3 mM DTT, 50 ng/uL salmon sperm DNA, 15 min at 48 C; 6% native PAGE in TBE.

B1: dsGCcomb (dsDNA)
DNA 1: AGGGTGGCAGCGTCGGAGCCTCGCA
DNA 2: TGCGAGGCTCCGACGCTGCCACCCT
As to B1, the binding signal in data set [1] was ~0.5 molar ratio of cold dsGCcomb to hot dsATcomb giving clear signal decrease; in data set [2] it was ≥ 2 fold more efficient than dsATcomb.

B2: dsATcomb (dsDNA)
DNA 1: AATGATTCTAAGTATCTTAGAAACA
DNA 2: TGTTTCTAAGATACTTAGAATCATT
Regarding B2, the binding signal in data set [3] is ~5 molar ratio of cold dsATcomb to hot dsGCcomb for similar displacement.
